Laboratory results as given in publication PMC9159911.

Test system: SmpB (small protein B) (Aeromonas veronii)
Experiment: MST
Conditions: […], pH 7.4), temperature not stated, binding buffer not stated

## PompA C52AT (native ompA promoter fragment)
  Kd: 0.93 µM

## PompA T52GC (CAT at +52 to TGC)
  Kd: 126 µM
